# In article PMC9321427:
# How the values were obtained:
# β-arrestin1-YFP = β-arrestin1-YFP (UniProt P49407); assay: BRET (PAR2-Rluc8 / β-arrestin1-YFP) in cells; settings: read off a plot
Molecule,"response (ligand induced ΔBRET) (β-arrestin1-YFP; cells stimulated with GzmK (concentration not given for panel D), parent: est. 0.027)","response (ligand induced ΔBRET) (β-arrestin1-YFP; cells treated with GzmK-AI (inactive GzmK; concentration not given for panel D), parent: est. -0.001)",cleavage product as percent of total peptide by HPLC after 15 h with granzyme (PAR2 peptide 10 (human))
"PAR2-Rluc8 (protease-activated receptor 2 fused to Renilla luciferase 8), uncleaved as expressed (from UniProt P55085) Arg36Ala",0.0038,-0.0015,
Granzyme A (enzyme) IIGGNEVTPHSRPYMVLLSLDRKTICAGALIAKDWVLTAAHCNLNKRSQVILGAHSITREEPTKQIMLVKKEFPYPCYDPATREGDLKLLQLMEKAKINKYVTILHLPKKGDDVKPGTMCQVAGWGRTHNSASWSDTLREVNITIIDRKVCNDRNHYNFNPVIGMNMVCAGSLRGGRDSCNGDSGSPLLCEGVFRGVTSFGLENKCGDPRGPGVYILLSKKHLNWIIMTIKGAV,,,6.6 % of total
Granzyme K (enzyme) IIGGKEVSPHSRPFMASIQYGGHHVCGGVLIDPQWVLTAAHCQYRFTKGQSPTVVLGAHSLSKNEASKQTLEIKKFIPFSRVTSDPQSNDIMLVKLQTAAKLNKHVKMLHIRSKTSLRSGTKCKVTGWGATDPDSLRPSDTLREVTVTVLSRKLCNSQSYYNGDPFITKDMVCAGDAKGQKDSCKGDSGGPLICKGVFHAIVSGGHECGVATKPGIYTLLTKKYQTWIKSNLVPPHTN,,,53 % of total
